The text below walks through data of patent US20220281951A1 (ACCELERON PHARMA, published 2022).

T1: GDF-11 (UniProt O95390 299-407)
T1 sequence (looked up): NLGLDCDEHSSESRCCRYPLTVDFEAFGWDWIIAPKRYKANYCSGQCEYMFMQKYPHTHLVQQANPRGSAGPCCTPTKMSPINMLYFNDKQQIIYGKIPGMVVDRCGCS

T2: Activin A (UniProt P08476 311-426)
T2 sequence (looked up): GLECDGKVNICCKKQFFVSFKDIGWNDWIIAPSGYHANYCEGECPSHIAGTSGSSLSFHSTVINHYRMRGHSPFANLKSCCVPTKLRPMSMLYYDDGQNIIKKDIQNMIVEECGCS

T3: GDF8 (UniProt O14793 267-375)
T3 construct: also called myostatin; Growth and Differentiation Factor-8
T3 sequence (looked up): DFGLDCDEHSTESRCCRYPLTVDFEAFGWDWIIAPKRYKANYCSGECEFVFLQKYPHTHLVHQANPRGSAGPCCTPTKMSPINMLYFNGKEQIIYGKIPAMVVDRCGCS

B1: ActRIIb-hFc (R64, 20-131) (Fc fusion)
chain: GRGEAETRECIYYNANWELERTNQSGLERCEGEQDKRLHCYASWRNSSGTIELVKKGCWLDDFNCYDRQECVATEENPQVYFCCCEGNFCNERFTHLPEAGGPEVTYEPPPTGGGTHTCPPCPAPELLGGPSVFLFPPKPKDTLMISRTPEVTCVVVDVSHEDPEVKFNWYVDGVEVHNAKTKPREEQYNSTYRVVSVLTVLHQDWLNGKEYKCKVSNKALPVPIEKTISKAKGQPREPQVYTLPPSREEMTKNQVSLTCLVKGFYPSDIAVEWESNGQPENNYKTTPPVLDSDGSFFLYSKLTVDKSRWQQGNVFSCSVMHEALHNHYTQKSLSLSPGK
B2: ActRIIb-hFc (R64, 20-132) (Fc fusion)
chain: GRGEAETRECIYYNANWELERTNQSGLERCEGEQDKRLHCYASWRNSSGTIELVKKGCWLDDFNCYDRQECVATEENPQVYFCCCEGNFCNERFTHLPEAGGPEVTYEPPPTAGGGTHTCPPCPAPELLGGPSVFLFPPKPKDTLMISRTPEVTCVVVDVSHEDPEVKFNWYVDGVEVHNAKTKPREEQYNSTYRVVSVLTVLHQDWLNGKEYKCKVSNKALPVPIEKTISKAKGQPREPQVYTLPPSREEMTKNQVSLTCLVKGFYPSDIAVEWESNGQPENNYKTTPPVLDSDGSFFLYSKLTVDKSRWQQGNVFSCSVMHEALHNHYTQKSLSLSPGK
B3: ActRIIb-hFc (R64, 20-128) (Fc fusion)
chain: GRGEAETRECIYYNANWELERTNQSGLERCEGEQDKRLHCYASWRNSSGTIELVKKGCWLDDFNCYDRQECVATEENPQVYFCCCEGNFCNERFTHLPEAGGPEVTYEPGGGTHTCPPCPAPELLGGPSVFLFPPKPKDTLMISRTPEVTCVVVDVSHEDPEVKFNWYVDGVEVHNAKTKPREEQYNSTYRVVSVLTVLHQDWLNGKEYKCKVSNKALPVPIEKTISKAKGQPREPQVYTLPPSREEMTKNQVSLTCLVKGFYPSDIAVEWESNGQPENNYKTTPPVLDSDGSFFLYSKLTVDKSRWQQGNVFSCSVMHEALHNHYTQKSLSLSPGK
B4: ActRIIb-hFc (R64, 24-131) (Fc fusion)
chain: AETRECIYYNANWELERTNQSGLERCEGEQDKRLHCYASWRNSSGTIELVKKGCWLDDFNCYDRQECVATEENPQVYFCCCEGNFCNERFTHLPEAGGPEVTYEPPPTGGGTHTCPPCPAPELLGGPSVFLFPPKPKDTLMISRTPEVTCVVVDVSHEDPEVKFNWYVDGVEVHNAKTKPREEQYNSTYRVVSVLTVLHQDWLNGKEYKCKVSNKALPVPIEKTISKAKGQPREPQVYTLPPSREEMTKNQVSLTCLVKGFYPSDIAVEWESNGQPENNYKTTPPVLDSDGSFFLYSKLTVDKSRWQQGNVFSCSVMHEALHNHYTQKSLSLSPGK
B5: ActRIIb-hFc (R64, 22-131) (Fc fusion)
chain: GEAETRECIYYNANWELERTNQSGLERCEGEQDKRLHCYASWRNSSGTIELVKKGCWLDDFNCYDRQECVATEENPQVYFCCCEGNFCNERFTHLPEAGGPEVTYEPPPTGGGTHTCPPCPAPELLGGPSVFLFPPKPKDTLMISRTPEVTCVVVDVSHEDPEVKFNWYVDGVEVHNAKTKPREEQYNSTYRVVSVLTVLHQDWLNGKEYKCKVSNKALPVPIEKTISKAKGQPREPQVYTLPPSREEMTKNQVSLTCLVKGFYPSDIAVEWESNGQPENNYKTTPPVLDSDGSFFLYSKLTVDKSRWQQGNVFSCSVMHEALHNHYTQKSLSLSPGK
B6: ActRIIb-hFc (R64, 21-131) (Fc fusion)
chain: RGEAETRECIYYNANWELERTNQSGLERCEGEQDKRLHCYASWRNSSGTIELVKKGCWLDDFNCYDRQECVATEENPQVYFCCCEGNFCNERFTHLPEAGGPEVTYEPPPTGGGTHTCPPCPAPELLGGPSVFLFPPKPKDTLMISRTPEVTCVVVDVSHEDPEVKFNWYVDGVEVHNAKTKPREEQYNSTYRVVSVLTVLHQDWLNGKEYKCKVSNKALPVPIEKTISKAKGQPREPQVYTLPPSREEMTKNQVSLTCLVKGFYPSDIAVEWESNGQPENNYKTTPPVLDSDGSFFLYSKLTVDKSRWQQGNVFSCSVMHEALHNHYTQKSLSLSPGK
B7: ActRIIb-hFc (R64, 23-131) (Fc fusion)
chain: EAETRECIYYNANWELERTNQSGLERCEGEQDKRLHCYASWRNSSGTIELVKKGCWLDDFNCYDRQECVATEENPQVYFCCCEGNFCNERFTHLPEAGGPEVTYEPPPTGGGTHTCPPCPAPELLGGPSVFLFPPKPKDTLMISRTPEVTCVVVDVSHEDPEVKFNWYVDGVEVHNAKTKPREEQYNSTYRVVSVLTVLHQDWLNGKEYKCKVSNKALPVPIEKTISKAKGQPREPQVYTLPPSREEMTKNQVSLTCLVKGFYPSDIAVEWESNGQPENNYKTTPPVLDSDGSFFLYSKLTVDKSRWQQGNVFSCSVMHEALHNHYTQKSLSLSPGK
B8: ActRIIb-hFc (R64, 20-134) (Fc fusion)
chain: GRGEAETRECIYYNANWELERTNQSGLERCEGEQDKRLHCYASWRNSSGTIELVKKGCWLDDFNCYDRQECVATEENPQVYFCCCEGNFCNERFTHLPEAGGPEVTYEPPPTAPTGGGTHTCPPCPAPELLGGPSVFLFPPKPKDTLMISRTPEVTCVVVDVSHEDPEVKFNWYVDGVEVHNAKTKPREEQYNSTYRVVSVLTVLHQDWLNGKEYKCKVSNKALPVPIEKTISKAKGQPREPQVYTLPPSREEMTKNQVSLTCLVKGFYPSDIAVEWESNGQPENNYKTTPPVLDSDGSFFLYSKLTVDKSRWQQGNVFSCSVMHEALHNHYTQKSLSLSPGK

The kon is the second-order rate constant of association. Low values mean slower complex formation, high ones faster complex formation.

The first experiment deals with T1, GDF-11. Put plainly: cell-based or functional assay.
In the case of B1, the “IC50 (ng/mL), A-204 reporter gene assay, conditioned media” value (shortened to “IC50 (ng/mL), A-204 reporter gene assay”) amounted to 120 ng/mL.

B2: the “IC50 (ng/mL), A-204 reporter gene assay” value worked out at 87 ng/mL.

On to B3, for which the “IC50 (ng/mL), A-204 reporter gene assay” value came to 130 ng/mL.

For a further experiment, the target named is T2, Activin A. Description: cell-based or functional assay.
For the molecule B1, the “IC50 (ng/mL), A-204 reporter gene assay” value stood at 44 ng/mL.

Take B2: the “IC50 (ng/mL), A-204 reporter gene assay” value turned out to be 32 ng/mL.

B3: the “IC50 (ng/mL), A-204 reporter gene assay” value was found to be 158 ng/mL.

The target of the next experiment is T1, GDF-11. Description: cell-based or functional assay. The source holds these as a separate data set.
Turning to B4, the “IC50 (ng/mL), A-204 reporter gene assay” value stood at 69 ng/mL.

With B5, the “IC50 (ng/mL), A-204 reporter gene assay” value came out at 71 ng/mL.

In the case of B6, the “IC50 (ng/mL), A-204 reporter gene assay” value was 121 ng/mL.

For B1, the “IC50 (ng/mL), A-204 reporter gene assay” value worked out at 183 ng/mL.

With B7, the “IC50 (ng/mL), A-204 reporter gene assay” value came to 60 ng/mL.

Another experiment addresses T2, Activin A. Description: cell-based or functional assay. The source holds these as a separate data set.
As for B4, the “IC50 (ng/mL), A-204 reporter gene assay” value amounted to 105 ng/mL.

On to B5, for which the “IC50 (ng/mL), A-204 reporter gene assay” value amounted to 100 ng/mL.

In the case of B6, the “IC50 (ng/mL), A-204 reporter gene assay” value was 325 ng/mL.

For B1, the “IC50 (ng/mL), A-204 reporter gene assay” value came to 201 ng/mL.

For the molecule B7, the “IC50 (ng/mL), A-204 reporter gene assay” value turned out to be 43 ng/mL.

In the next experiment the target is T3, GDF8. Put plainly: BiaCore SPR; ActRIIB-Fc captured by anti-hFc antibody, ligand injected. Here is the method:
The ActRIIB-Fc variants or wild-type protein were captured onto the system using an anti-hFc antibody. Ligands were injected and flowed over the captured receptor proteins.
For orientation: Surface plasmon resonance follows binding to a sensor surface in real time, without labels.
B8 showed an association rate constant (kon) of 369000 M⁻¹ s⁻¹.
